Experimental data reported in PMC4498786, “Dimerization-Induced Allosteric Changes of the Oxyanion-Hole Loop Activate the Pseudorabies Virus Assemblin pUL26N, a Herpesvirus Serine Protease” (PLoS Pathogens, 2015).

B1: pseudorabies virus (PrV) assemblin pUL26N, protease domain of pUL26, residues 1-224 (enzyme)
chain: MGPVYVSGYLALYDRDGGELALTREIVAAALPPAGPLPINIDHRPRCDIGAVLAVVDDDRGPFFLGVVNCPQLGAVLARAVGPDFFGDMRLSDEERLLYLLSNYLPSASLSSRRLAPGEAPDETLFAHVALCVIGRRVGTIVVYDASPEAAVAPFRQLSARARSELLARAAESPDRERVWHMSEEALTRALLSTAVNNMLLRDRWELVAARRREAGVRGHTYLQ
notes: also called PrV protease; VP24
B2: diisopropyl fluorophosphate-inhibited pseudorabies virus (PrV) assemblin pUL26N, residues 1-224 (enzyme)
chain: MGPVYVSGYLALYDRDGGELALTREIVAAALPPAGPLPINIDHRPRCDIGAVLAVVDDDRGPFFLGVVNCPQLGAVLARAVGPDFFGDMRLSDEERLLYLLSNYLPSASLSSRRLAPGEAPDETLFAHVALCVIGRRVGTIVVYDASPEAAVAPFRQLSARARSELLARAAESPDRERVWHMSEEALTRALLSTAVNNMLLRDRWELVAARRREAGVRGHTYLQ

How the values were obtained:
[1] = biological target: the molecule itself; assay: small-angle X-ray scattering (SAXS)
crystal structure = biological target: the molecule itself; assay: crystal structure

Protein | stoichiometry N [1] | stoichiometry N (crystal structure)
B1 | 2 | –
B2 | – | 2
